In paper PMC6399465:

Biological target: biotinylated IRF3-Flag (UniProt Q14653)
Assay: BLI; Forte-Bio Octet Red; 10 ug/ml biotinylated IRF3-Flag coupled to biosensors, immersed in ICP27-Flag (50, 200, 500 or 800 nM); proteins in PBS

UniProt Q14653, sequence (Q14653 whole entry): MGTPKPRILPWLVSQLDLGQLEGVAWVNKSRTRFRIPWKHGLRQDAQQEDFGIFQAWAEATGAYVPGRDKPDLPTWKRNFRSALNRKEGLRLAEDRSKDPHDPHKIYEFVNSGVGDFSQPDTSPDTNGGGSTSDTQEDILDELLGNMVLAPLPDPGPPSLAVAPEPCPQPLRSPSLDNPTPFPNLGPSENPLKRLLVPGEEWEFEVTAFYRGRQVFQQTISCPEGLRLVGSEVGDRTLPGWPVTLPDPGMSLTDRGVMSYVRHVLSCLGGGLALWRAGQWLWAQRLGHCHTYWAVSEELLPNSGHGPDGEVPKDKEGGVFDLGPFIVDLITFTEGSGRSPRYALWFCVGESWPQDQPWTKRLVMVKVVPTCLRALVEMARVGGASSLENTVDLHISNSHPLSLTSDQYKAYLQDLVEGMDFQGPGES

Question: For “ICP27-Flag (purified from HEK 293F) (from UniProt P28276 1-512) (natural protein)”, which Kd is on record?
Answer: 20.3 nM
